In patent publication US20250074980A1 (BRIGHAM AND WOMEN S HOSPITAL, published 2025):
Where “and” joins values, the source holds several entries; their conditions need not be identical. Equal values may be shown once.

T1: His-tagged CEACAM1 (human, UniProt P13688 35-428)
T1 construct: 45 kDa SPR analyte; also called CEACAM1-HIS; CEACAM1 analyte
T1 sequence: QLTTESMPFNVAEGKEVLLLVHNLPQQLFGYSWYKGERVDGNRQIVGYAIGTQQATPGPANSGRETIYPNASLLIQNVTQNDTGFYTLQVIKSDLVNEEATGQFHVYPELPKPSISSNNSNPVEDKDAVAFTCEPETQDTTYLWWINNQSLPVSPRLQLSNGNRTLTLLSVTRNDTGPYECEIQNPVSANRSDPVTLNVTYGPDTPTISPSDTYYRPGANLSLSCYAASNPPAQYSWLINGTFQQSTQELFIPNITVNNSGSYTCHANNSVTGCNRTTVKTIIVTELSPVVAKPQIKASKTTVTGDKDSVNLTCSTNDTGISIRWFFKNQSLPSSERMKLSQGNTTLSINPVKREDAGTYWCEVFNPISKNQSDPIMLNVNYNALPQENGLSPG

T2: CEACAM8 on transfected HeLa cells (human, UniProt P31997 35-320)
T2 construct: whole, on cells; also called HeLa-CEACAM8; HeLa C8
T2 sequence (looked up): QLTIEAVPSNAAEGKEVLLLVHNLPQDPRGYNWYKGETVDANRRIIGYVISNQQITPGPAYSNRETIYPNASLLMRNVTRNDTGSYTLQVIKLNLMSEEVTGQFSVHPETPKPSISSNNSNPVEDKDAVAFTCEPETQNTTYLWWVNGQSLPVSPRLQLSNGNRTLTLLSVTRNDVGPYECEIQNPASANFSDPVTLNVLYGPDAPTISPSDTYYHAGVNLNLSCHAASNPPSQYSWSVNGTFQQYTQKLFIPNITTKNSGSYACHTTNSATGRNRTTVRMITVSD

T3: CEACAM3 on transfected HeLa cells (human, UniProt P40198 35-252)
T3 construct: whole, on cells; also called HeLa-CEACAM3; HeLa C3
T3 sequence (looked up): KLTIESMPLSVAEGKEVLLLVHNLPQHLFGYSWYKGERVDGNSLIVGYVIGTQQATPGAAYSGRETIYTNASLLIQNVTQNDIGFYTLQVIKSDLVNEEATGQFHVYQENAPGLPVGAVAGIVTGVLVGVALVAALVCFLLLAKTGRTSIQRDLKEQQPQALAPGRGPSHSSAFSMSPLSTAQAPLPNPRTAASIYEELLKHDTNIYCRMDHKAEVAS

T4: CEACAM6 on transfected HeLa cells (human, UniProt P40199 35-320)
T4 construct: whole, on cells; also called HeLa-CEACAM6; HeLa C6
T4 sequence (looked up): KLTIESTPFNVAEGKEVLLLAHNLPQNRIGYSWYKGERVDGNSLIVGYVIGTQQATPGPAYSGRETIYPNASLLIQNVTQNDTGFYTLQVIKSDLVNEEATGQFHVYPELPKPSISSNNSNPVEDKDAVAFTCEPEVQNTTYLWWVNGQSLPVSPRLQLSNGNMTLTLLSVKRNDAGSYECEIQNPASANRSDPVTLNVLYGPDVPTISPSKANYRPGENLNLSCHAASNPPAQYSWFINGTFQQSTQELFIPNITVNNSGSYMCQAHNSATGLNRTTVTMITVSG


Key:
His-tagged CEACAM1 [1] = biological target: T1, His-tagged CEACAM1; experiment: SPR multi-cycle, IgG captured
Description: (§1) As an alternative approach to assess the binding of the 36 antibody combinations and the three control antibodies to CEACAM1, a kinetic analysis was performed on a Biacore T200 (serial no. 1909913) running Biacore T200 Evaluation Software V2.0.1 (Uppsala, Sweden). All experiments were run at 25° C. with HBS-P+ running buffer (pH 7.4) (GE Healthcare, cat. no. BR100671). All kinetic experiments were performed using His-tagged CEACAM1 as the analyte. For all experiments, antibodies were immobilized onto a Series S Protein A sensor chip surface. For kinetic experiments, the amount of immobilized/captured ligand was limited to avoid mass transfer effects at the surface of the chip with the surface ideally having an analyte binding level (Rₘₐₓ) of 50-150 RUs. Using a MW of 45 kDa for the CEACAM1 analyte, 150 kDa for the antibody ligand (estimated value for IgG), 50 RU for Rmax and the stoichiometry (Sm) as 2 due to the ability of each antibody to bind 2 target molecules, a target response level of ˜75 RUs was set for capture of all the sample antibodies.
The signal from the reference channel Fc1 was subtracted from that of Fc2, Fc3 and Fc4 to correct for differences in non-specific binding to a reference surface, a global Rmax parameter was used in the 1-to-1 binding model. The relative Kp compared to […] was calculated by dividing the Kp of the humanized CEACAM antibody variants by that of the chimeric antibody VH0/Vκ0 on the same chip. A summary of the averaged relative Kp obtained for the 12 antibody combinations analyzed using multi cycle kinetics can be found in Table 5.

[2] = biological target: T2, CEACAM8 on transfected HeLa cells; experiment: flow cytometry, transfected HeLa
Procedure, shortened: (§2)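 For each HeLa line stably transfected with one CEACAM family member, staining is given as the measure of binding selectivity. Cultures were held at 37° C with 5.0% CO₂ in DMEM plus 10% fetal bovine serum. The test antibody, a fluorochrome-conjugated isotype-specific secondary antibody and DAPI as viability dye were applied, with acquisition on a Cytoflex and analysis in FlowJo.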

[3] = biological target: T3, CEACAM3 on transfected HeLa cells; experiment: flow cytometry, transfected HeLa
Procedure, shortened: as §2

[4] = biological target: T4, CEACAM6 on transfected HeLa cells; experiment: flow cytometry, HeLa-CEACAM6 transfectants, % positive cells
Description: Binding selectivity for CEACAM1 was tested for the 24 humanized antibody variants that bound to CEACAM1 (see Table 3), as well as the chimeric control antibody VH0/Vκ0, by flow cytometry on HeLa cells transfected with CEACAM1, 3, 5, 6 and 8. […] There was no evidence of any staining of the HeLa-CEACAM3 or HeLa-CEACAM8 transfectants. […] Due to its favorable affinity to and selectivity for CEACAM1 as well as its favorable expression level, VH1/Vκ8 was chosen as the framework for affinity maturation.

His-tagged CEACAM1 [5] = biological target: T1, His-tagged CEACAM1; experiment: SPR single-cycle, IgG captured
Description: as §1
Single cycle analysis of the 36 antibody combinations and the three control antibodies was performed on purified antibodies (Vκ1 to Vκ6 variants) or on the supernatants of the transiently transfected HEK EBNA cells (Vκ7 to Vκ12 variants). In some instances, where supernatant was not available, purified chimeric antibody VH0/Vκ0 was spiked into HEK EBNA culture medium to use as a positive control. Antibodies were diluted in HBS-P+ to a concentration of 1 μg/ml (as determined by an IgG quantitation ELISA). At the start of each cycle, antibodies were loaded onto Fc2, Fc3 and Fc4 of a protein A chip and IgG captured at a flow rate of 8 μl/min to give an RU of ˜75. The surface was then allowed to stabilize. Single cycle kinetic data was obtained at a flow rate of 50 μl/min to minimize any potential mass transfer effects. Multiple repeats of the chimeric antibody VH0/Vκ0 were performed to check the stability of the surface and analyte over the kinetic cycles. The signal from the reference channel Fc1 (no antibody) was subtracted from that of Fc2, Fc3 and Fc4 to correct for differences in non-specific binding to a reference surface. A 5 point 2-fold dilution range from 3.125 to 50 nM CEACAM1 without regeneration between each concentration was used.

Row | Kd (His-tagged CEACAM1 [1]) | average relative KD to VH0/Vκ0 (His-tagged CEACAM1 [1]) | koff (His-tagged CEACAM1 [1]) | kon (His-tagged CEACAM1 [1]) | binding result [2] | binding result [3] | binding result [4] | Kd (His-tagged CEACAM1 [5]) [nM] | relative KD to VH0/Vκ0 (His-tagged CEACAM1 [5]) | relative KD to VH0/Vκ0 (His-tagged CEACAM1 [1]) | Binder
1 | 125 nM | 2.3 | 0.0417 s⁻¹ | 334000 M⁻¹ s⁻¹ | no binding | no binding | no binding | 125 | 3 | 2.3 | VH2/Vκ8 (antibody, IgG4, V domains shown, IgG4 (S241P), kappa) VH: EVQLLESGGGLVQPGGSLRLSCAASGFIFSSHGMSWVRQAPGKGLEWVATISSGGTYTYYPDSVKGRFTISRDNSKNTLYLQMNSLRAEDTAMYYCARHDFDYDAAWFAYWGQGTLVTVSS VL: EIVLTQSPATLSLSPGERATLSCRANSSVSYMYWYQQKPGQAPRPWIYLTSNRATGVPARFSGSGSGTDYTLTISSLEPEDFAVYYCQQWSSNPPTFGQGTKLEIK
2 | 71 nM | 2.3 | 0.0258 s⁻¹ | 362000 M⁻¹ s⁻¹ | no binding | no binding | no binding | 152 | 3.7 | 2.4 | VH2/Vκ7 (antibody, IgG4, V domains shown, IgG4 (S241P), kappa) VH: EVQLLESGGGLVQPGGSLRLSCAASGFIFSSHGMSWVRQAPGKGLEWVATISSGGTYTYYPDSVKGRFTISRDNSKNTLYLQMNSLRAEDTAMYYCARHDFDYDAAWFAYWGQGTLVTVSS VL: EIVLTQSPATLSLSPGERATLSCRANSSVSYMYWYQQKPGQAPRPWIYLTSNRATGVPARFSGSGSGTDFTLTISSLEPEDFATYYCQQWSSNPPTFGQGTKLEIK

The remaining lines, values behind:

Row | Binder | Kd (His-tagged CEACAM1 [1]) | average relative KD to VH0/Vκ0 (His-tagged CEACAM1 [1]) | koff (His-tagged CEACAM1 [1]) | kon (His-tagged CEACAM1 [1]) | binding result [2] | binding result [3] | binding result [4] | Kd (His-tagged CEACAM1 [5]) [nM] | relative KD to VH0/Vκ0 (His-tagged CEACAM1 [5]) | relative KD to VH0/Vκ0 (His-tagged CEACAM1 [1])
3 | VH1/Vκ7 (antibody, IgG4, V domains shown, IgG4 (S241P), kappa) VH: EVQLLESGGGLVQPGGSLRLSCAASGFIFSSHGMSWVRQAPGKGLEWVATISSGGTYTYYPDSVKGRFTISRDNSKNTLYLQMNSLKAEDTAMYYCARHDFDYDAAWFAYWGQGTLVTVSS VL: EIVLTQSPATLSLSPGERATLSCRANSSVSYMYWYQQKPGQAPRPWIYLTSNRATGVPARFSGSGSGTDFTLTISSLEPEDFATYYCQQWSSNPPTFGQGTKLEIK | 119 nM and 69 nM | 2 | 0.0492 s⁻¹ and 0.0352 s⁻¹ | 415000 M⁻¹ s⁻¹ and 510000 M⁻¹ s⁻¹ | no binding | no binding | no binding | 109 | 2.6 | 
4 | VH1/Vκ12 (antibody, IgG4, V domains shown, IgG4 (S241P), kappa) VH: EVQLLESGGGLVQPGGSLRLSCAASGFIFSSHGMSWVRQAPGKGLEWVATISSGGTYTYYPDSVKGRFTISRDNSKNTLYLQMNSLKAEDTAMYYCARHDFDYDAAWFAYWGQGTLVTVSS VL: EIVLTQSPATLSLSPGERATLSCRANSSVSYMYWYQQKPGQAPRPLIYLTSNRATGIPARFSGSGSGTDYTLTISSLEPEDFATYYCQQWSSNPPTFGQGTKLEIK | 65 nM | 2.2 | 0.0268 s⁻¹ | 411000 M⁻¹ s⁻¹ | no binding | no binding | no binding | 143 | 3.5 | 2.2
5 | VH1/Vκ9 (antibody, IgG4, V domains shown, IgG4 (S241P), kappa) VH: EVQLLESGGGLVQPGGSLRLSCAASGFIFSSHGMSWVRQAPGKGLEWVATISSGGTYTYYPDSVKGRFTISRDNSKNTLYLQMNSLKAEDTAMYYCARHDFDYDAAWFAYWGQGTLVTVSS VL: EIVLTQSPATLSLSPGERATLSCRANSSVSYMYWYQQKPGQAPRPLIYLTSNRATGVPARFSGSGSGTDYTLTISSLEPEDFATYYCQQWSSNPPTFGQGTKLEIK | 220 nM | 4 | 0.0504 s⁻¹ | 229000 M⁻¹ s⁻¹ | no binding | no binding | no binding | 142 | 3.4 | 4
6 | VH1/Vκ8 (antibody, IgG4, V domains shown, IgG4 (S241P), kappa) VH: EVQLLESGGGLVQPGGSLRLSCAASGFIFSSHGMSWVRQAPGKGLEWVATISSGGTYTYYPDSVKGRFTISRDNSKNTLYLQMNSLKAEDTAMYYCARHDFDYDAAWFAYWGQGTLVTVSS VL: EIVLTQSPATLSLSPGERATLSCRANSSVSYMYWYQQKPGQAPRPWIYLTSNRATGVPARFSGSGSGTDYTLTISSLEPEDFAVYYCQQWSSNPPTFGQGTKLEIK | 95 nM | 1.8 | 0.0406 s⁻¹ | 430000 M⁻¹ s⁻¹ | no binding | no binding | no binding | 131 | 3.2 | 1.8
7 | VH1/Vκ10 (antibody, IgG4, V domains shown, IgG4 (S241P), kappa) VH: EVQLLESGGGLVQPGGSLRLSCAASGFIFSSHGMSWVRQAPGKGLEWVATISSGGTYTYYPDSVKGRFTISRDNSKNTLYLQMNSLKAEDTAMYYCARHDFDYDAAWFAYWGQGTLVTVSS VL: EIVLTQSPATLSLSPGERATLSCRANSSVSYMYWYQQKPGQAPRPWIYLTSNRATGIPARFSGSGSGTDFTLTISSLEPEDFATYYCQQWSSNPPTFGQGTKLEIK | 180 nM | 3.2 | 0.0511 s⁻¹ | 284000 M⁻¹ s⁻¹ | no binding | no binding | no binding | 146 | 3.5 | 3.2
